The source of these data is US20180344813A1, “ENGINEERED POLYPEPTIDES HAVING ENHANCED DURATION OF ACTION WITH REDUCED IMMUNOGENICITY” (priority 2016, published 2018).

Series [1] has as its system NIH/Swiss mice. Kind of series: OGTT DOA (oral glucose tolerance test duration of action). The format is in vivo, mouse.
Protocol: For example, duration can be performed using an oral glucose tolerance test (OGTT) in which the drug is administered to the subject at a desired time point before the glucose is administered orally(to measure drug duration of action; OGTT DOA) and glucose blood levels are measured (e.g. readily done in mice).
Drug was administered to 4-hr fasted NIH/Swiss mice. […] Blood glucose was measured with a OneTouch® Ultra® (LifeScan, Inc., a Johnson & Johnson Company, Milpitas, Calif.). *p<0.05 vs. vehicle control; ANOVA, Dunnett's test. Glucose lowering as percent lowering compared to vehicle is given (negative value indicates lowering of glucose) at 30 minutes post gavage.
The subject of series [2] is renal cortical tubular epithelial cells. The series can be described thus: Kidney vacuolization histopathology in C57BL6 female mice. The format is in vivo, mouse. The protocol:
With some drugs, such as some pegylated proteins, undesirable vacuoles can form in cytoplasm of epithelial cells lining the proximal convoluted tubules, which is an undesirable toxicity measure. […] C57BL6 female mice (n=2 cages, 3 mice/cage) were weighed daily 3 hours prior to lights out. Immediately after weighing, on days 0-6 mice were injected subcutaneously with test compound. Mice were sacrificed on day 7 and kidneys submitted for histopathology. […] A positive control compound known to cause vacuole formation was scored as 3.

The subject of series [3] is CD3+ CD4+ T cells.
Series [4] deals with IgG molecules present in normal human sera. Kind of series: Serum response analysis: ELISA of human serum IgG binding to albumin binding polypeptides. The protocol:
Each serum sample was tested as a singlet.

The target in series [5] is T1, GLP-1 receptor (Rattus norvegicus, UniProt P32301).
T1 construct: functional activity was determined using cells that endogenously express GLP-1R; endogenous in cells; host or cells: rat thyroid carcinoma 6-23 (clone 6) cells
T1 sequence (P32301 22-463): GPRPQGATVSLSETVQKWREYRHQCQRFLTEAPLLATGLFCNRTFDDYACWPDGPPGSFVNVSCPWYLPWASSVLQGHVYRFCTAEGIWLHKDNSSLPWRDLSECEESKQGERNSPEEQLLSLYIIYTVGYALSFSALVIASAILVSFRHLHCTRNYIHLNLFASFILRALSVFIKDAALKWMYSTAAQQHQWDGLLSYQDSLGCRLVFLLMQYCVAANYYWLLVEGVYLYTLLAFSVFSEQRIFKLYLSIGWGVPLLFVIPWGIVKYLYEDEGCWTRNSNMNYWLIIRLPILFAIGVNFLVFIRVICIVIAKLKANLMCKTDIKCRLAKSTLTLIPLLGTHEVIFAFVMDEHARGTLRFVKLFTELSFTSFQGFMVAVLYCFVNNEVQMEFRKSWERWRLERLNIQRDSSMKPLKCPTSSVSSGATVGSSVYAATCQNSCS
Kind of series: GLP-1 receptor functional assay: cAMP induction (HTRF) in rat thyroid carcinoma 6-23 (clone 6) cells. The format is cell-based.

Take “HGEGTFTSDLSKQLEEEAVRLFIEWLKNGGPSSGAPPKSTGGGGSASGSLAEAKEAANAELDSYGVSDFYKRLIDKAKTVEGVEALKDAILAALP [Cmpd 6]”: the “Percent glucose lowering compared to vehicle” value in series [1] (25 nmol/Kg, OGTT at 24 hours post drug administration, 30 minutes post gavage, 4-hr fasted NIH/Swiss mice) is −22%.
As to `CC[C@H](C)[C@H](NC(=O)[C@H](C)NC(=O)[C@H](CC(=O)O)NC(=O)[C@H](CCCCN)NC(=O)[C@H](CC(C)C)NC(=O)[C@H](C)NC(=O)[C@H](CCC(=O)O)NC(=O)[C@@H](NC(=O)CNC(=O)[C@H](CCC(=O)O)NC(=O)[C@@H](NC(=O)[C@@H](NC(=O)[C@H](CCCCN)NC(=O)[C@H](C)NC(=O)[C@H](CCCCN)NC(=O)[C@H](CC(=O)O)NC(=O)[C@@H](NC(=O)[C@H](CC(C)C)NC(=O)[C@H](CCCNC(=N)N)NC(=O)[C@H](CCCCN)NC(=O)[C@H](Cc1ccc(O)cc1)NC(=O)[C@H](Cc1ccccc1)NC(=O)[C@H](CC(=O)O)NC(=O)[C@H](CO)NC(=O)[C@@H](NC(=O)CNC(=O)[C@H](Cc1ccc(O)cc1)NC(=O)[C@H](CO)NC(=O)[C@H](CC(=O)O)NC(=O)[C@H](CC(C)C)NC(=O)[C@H](CCC(=O)O)NC(=O)[C@H](C)NC(=O)[C@H](CC(N)=O)NC(=O)[C@H](C)NC(=O)[C@H](C)NC(=O)[C@H](CCC(=O)O)NC(=O)[C@H](CCCCN)NC(=O)[C@H](C)NC(=O)[C@H](CCC(=O)O)NC(=O)[C@H](C)NC(=O)[C@H](CC(C)C)NC(=O)[C@H](CO)NC(=O)CN)C(C)C)[C@@H](C)CC)[C@@H](C)O)C(C)C)C(C)C)C(=O)N[C@@H](CC(C)C)C(=O)N[C@@H](C)C(=O)N[C@@H](C)C(=O)N[C@@H](CC(C)C)C(=O)N1CCC[C@H]1C(=O)O` [PEP07986], the “severity score for cytoplasmic vacuolation of renal cortical tubular epithelial cells” value in series [2] (mouse, in vivo, sc) turned out to be 0.
Take “HGEGTFTSDLSKQLEEEAVRLFIEWLKQGGPSKEIISTGGGGSASGSLAEAKEAANAELDSYGVSDFYKRLIDKAKTVEGVEALKDAILAALP [Cmpd 5]”: in series [2] (subcutaneous on days 0-6, sacrificed on day 7, C57BL6 female mice), the “severity score for cytoplasmic vacuolation of renal cortical tubular epithelial cells” value worked out at 0.
As to `CC[C@H](C)[C@H](NC(=O)[C@H](C)NC(=O)[C@H](CC(=O)O)NC(=O)[C@H](CCCCN)NC(=O)[C@H](CC(C)C)NC(=O)[C@H](C)NC(=O)[C@H](CCC(=O)O)NC(=O)[C@@H](NC(=O)CNC(=O)[C@H](CCC(=O)O)NC(=O)[C@@H](NC(=O)[C@@H](NC(=O)[C@H](CCCCN)NC(=O)[C@H](C)NC(=O)[C@H](CCCCN)NC(=O)[C@H](CC(=O)O)NC(=O)[C@@H](NC(=O)[C@H](CC(C)C)NC(=O)[C@H](CCCNC(=N)N)NC(=O)[C@H](CCCCN)NC(=O)[C@H](Cc1ccc(O)cc1)NC(=O)[C@H](Cc1ccccc1)NC(=O)[C@H](CC(=O)O)NC(=O)[C@H](CO)NC(=O)[C@@H](NC(=O)CNC(=O)[C@H](Cc1ccc(O)cc1)NC(=O)[C@H](CO)NC(=O)[C@H](CC(=O)O)NC(=O)[C@H](CC(C)C)NC(=O)[C@H](CCC(=O)O)NC(=O)[C@H](C)NC(=O)[C@H](CC(N)=O)NC(=O)[C@H](C)NC(=O)[C@H](C)NC(=O)[C@H](CCC(=O)O)NC(=O)[C@H](CCCCN)NC(=O)[C@H](C)NC(=O)[C@H](CCC(=O)O)NC(=O)[C@H](C)NC(=O)[C@H](CC(C)C)NC(=O)CN)C(C)C)[C@@H](C)CC)[C@@H](C)O)C(C)C)C(C)C)C(=O)N[C@@H](CC(C)C)C(=O)N[C@@H](C)C(=O)N[C@@H](C)C(=O)N[C@@H](CC(C)C)C(=O)N1CCC[C@H]1C(=O)O` [PEP07914], in series [3], the immunogenicity definition entry is given as “non-immunogenic” and the “number of responding individuals” value was 2. In addition, in series [4], the “reactivity with serum IgG (average OD-value and percentage of serum with IgG binding)” value was “least reactivity”.

B1: HGEGTFTSDLSKQLEEEAVRLFIEWLKNTGGGGSASGSLAEAKEAANAELDSYGVS DFYKRLIDKAKTVEGVEALKDAILAALP (protein)
chain: HGEGTFTSDLSKQLEEEAVRLFIEWLKNTGGGGSASGSLAEAKEAANAELDSYGVSDFYKRLIDKAKTVEGVEALKDAILAALP
B1: the “in vitro activity against the GLP-1 receptor” value in series [5] is “active in vitro against the GLP-1 receptor”. The “activity in OGTT DOA when dosed at t-24 hours” value in series [1] (NIH/Swiss mice, drug given 24 hours before OGTT) is on record as “did not display 24 duration”.
